The text below walks through data of publication PMC3427169, “Interaction of Mycobacterium tuberculosis RshA and SigH Is Mediated by Salt Bridges” (PLoS ONE, 2012).

Assay [1] deals with SigH (Mycobacterium tuberculosis) (UniProt P9WGH8). Conditions: cited from earlier work.
Assay [2] has as its target T1, Mycobacterium tuberculosis SigH, 6xHis-tagged (pET29a) (Mycobacterium tuberculosis H37Rv, UniProt P9WGH9 1-216).
T1 construct: no tag removal is told; also called WT SigH; 6xHis:SigH; not shown: His6, C-terminal, kept
As to the kind of experiment: native gel or EMSA; metal free RshA mixed with SigH at equimolar concentrations (3 µM each in the text, 5 µM each in the legend), 50 mM Tris HCl pH 8.0, 100 mM NaCl, 0.01% Triton X-100, 25°C; native gel pH 8.8 and SDS-PAGE, Coomassie. Conditions: both partners purified. Background: In EMSA bound probe runs differently from free probe, usually more slowly.

Usually Kd stands for the free concentration of one partner at which half of the binding sites on the other are occupied at equilibrium, for simple one-to-one binding.

Chain of SigH (Mycobacterium tuberculosis) (P9WGH8 whole entry): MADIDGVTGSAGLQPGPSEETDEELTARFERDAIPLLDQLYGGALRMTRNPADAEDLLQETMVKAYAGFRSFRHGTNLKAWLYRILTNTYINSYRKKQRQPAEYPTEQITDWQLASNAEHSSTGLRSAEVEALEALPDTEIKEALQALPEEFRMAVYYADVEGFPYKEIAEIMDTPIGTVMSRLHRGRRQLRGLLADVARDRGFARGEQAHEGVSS
T1 sequence (P9WGH9 whole entry): as the sequence (P9WGH8 whole entry) above

Turning to RshA (from UniProt P9WJ68), the Kd in assay [1] was 15 nM.

B1: Mycobacterium tuberculosis anti-sigma factor RshA, 6xHis-tagged (pET29a) (natural protein)
chain: MSENCGPTDAHADHDDSHGGMGCAEVIAEVWTLLDGECTPETRERLRRHLEACPGCLRHYGLEERIKALIGTKCRGDRAPEGLRERLRLEIRRTTIIRGGP
notes: also called WT RshA; 6xHis:RshA; not shown: His6, C-terminal, kept
In the case of B1, in assay [2], the binding result is reported as “binds”.
